Test: soluble on expression in E. coli; label from the status in PepcDB or PDB records

Q: Which “soluble on expression in E. coli” value does the source give for “MTVPPTATHQPWPGVIAAYRDRLPVGDDWTPVTLLEGGTPLIAATNLSKQTGCTIHLKVEGLNPTGSFKDRGMTMAVTDALAHGQRAVLCASTGNTSASAAAYAARAGITCAVLIPQGKIAMGKLAQAVMHGAKIIQIDGNFDDCLELARKMAADFPTISLVNSVNPVRIEGQKTAAFEIVDVLGTAPDVHALPVGNAGNITAYWKGYTEYHQLGLIDKLPRMLGTQAAGAAPLVLGEPVSHPETIATAIRIGSPASWTSAVEAQQQSKGRFLAASDEEILAAYHLVARVEGVFVEPASAASIAGLLKAIDDGWVARGSTVVCTVTGNGLKDPDTALKDMPSVSPVPVDPVAVVEKLGLA” here?
A: The value was “soluble”.

Q: With “MALLLVMGIPASGKSTFRRKIQTAHRELLESTSFDDFRMMRTRSSDKNARQTRKSFECHVESCISESTSKIYVIEDIFYLKSMRHPFQKIAKRHGLQFGIIFLKVGIVEALRRNSHRTGIEKQKNETIRKIFEKMEDPDEILENSIVLETDEVEIDVEVVMNKLKFDFTAKKPIVPEVSLKKSHIQKPPPPSKLESLDVLTRRLVSELMQNDKTMNGRKLSDARKKLLIDLSGNLEISNENDPKFLYDLKLKLIEFYDK” as the sequence, how does the “soluble on expression in E. coli” value read?
A: Its value is “not soluble”.

Q: With “IPVDLTWDLEAIFSTDEEWEKEFNEVKGLIPSLVQFKGKLSQSAEILYAALQQQDEITERLGRLYTYAHMRYDQDTTNSFYQGLNDRAQTLASQVGQAASFVVPELMSIEKEKIDTFLNEHEPLTLYRHMLDELNKQRPHVLSEAEESILAQASEVTSAPSNTFGMLNNADMTFPTIVNENGEEVEVTHGRYL” as the sequence, how does the “soluble on expression in E. coli” value read?
A: Its value is “soluble”.

Q: Which “soluble on expression in E. coli” value does the source give for “SEQTEVLKPRTLADLIRILHQLFAGDEVNVEEVQAIMEAYESDPTEWAMYAKFDQYRYTRNLVDQGNGKFNLMILCWGEGHGSSIHDHTNSHCFLKMLQGNLKETLFAWPDKKSNEMVKKSERVLRENQCAYINDSVGLHRVENISHTEPAVSLHLYSPPFDTCHAFDQRTGHKNKVTMTFHSKFGIRTPNATSGSLENN” here?
A: Its value is “soluble”.

Q: With “VGKTVKREYCHEENDEELRKAVHDACYDKSYAIAASGNRNKHERQDAFDAIRDEFKAQFSEEELEEKGALIDRYYHDVEKEAMRRCILDEGKRLDGRKTTEIRP” as the sequence, how does the “soluble on expression in E. coli” value read?
A: The value was “not soluble”.

Q: For “MGSDKIHHHHHHMAHPLSRIIDQLKREPSRTGSIVITVFGDAIVPRGGSVWLGTLLEFFESLDIDSGVVRTAMSRLAADGWLTREKVGRNSFYRLADKGHQTFEAATRHIYDPPPSDWTGRFELLLINGEDRDASREALRNAGFGSPLPGVWVAPSGVPVPDEAAGAIRLEVSAEDDSGRRLLSASWPLDRTADAYLKFMKTFEPLRTAIGRGTTLSDADAFTARILLIHHYRRVVLRDPLLPESLLPADWPGRAARELCGEIYRALLAPSEQWLDGHGTNEKGPLPAARKLLERRFGA”, which “soluble on expression in E. coli” value is on record?
A: The value was “not soluble”.

Q: For “MSLSYEYFPGFYDRLMDSELYDEWLEFSADFIGDAPKKVLDLACGTAEFALRLSFSGHQVTGVDLSKEMVAVAKEKVAAAEIDLPIIEQDMSKLALKQTFDVVTCFCDSLNYLETEQALEATIQAVSAHLEPNGLFLFDVHSVFKIEQGFKDYSYGDSDEEISTIWNSFPGEHPHSIEHELTFYILGEDDTYNRVDELHKERTYPIATYENLLKKFGFTKIDIYADFSHEKPNKTSERIFFAARKEGHHHHHH”, which “soluble on expression in E. coli” value is on record?
A: The value was “soluble”.

Q: With “MGSDKIHHHHHHMTTIPSTAEAKLEMLTTINRAIAGSRPEALPPYPVPAPLSRAEILHQFEDRILDYGAAYTHVSAAELPGAIAKALGNARRVIVPAGIPAPWLTVGMDVLRDEPPLSHAELDRADAVLTGCAVAISETGTIILDHRADQGRRALSLIPDFHICVVREDQIVQTVREGVEAVAASVREGRPLTWLSGGSATSDIELVRVEGVHGPRRLQVIVVG” as the sequence, how does the “soluble on expression in E. coli” value read?
A: Its value is “soluble”.

Q: With “MSFMDKVKDTANSAYESVENTAVGAKDGVVGAFNTVGEKIGGAYDSTKQYASDKVSAAGDYASEAGKKVGDAEDSMIQGAYDAKDSAKESASNAGNKISNAFTSLKDSITGDNAHKTGEALNDNYESVKESASEAADRLKEPAQNTADNAKDLANQTGEEMSDAFESVKQLTSDTAENAKENAHDAADTAKSYKDKAGEKASGILDSFKAHASDAKDSVENKASDAYNSAKDKAGDAWDSTKDAAGDAKDKTKSFTEKVGDKISGAYDSVKEKASDVADSFKAHSTDSKDNVENKAADAYNTAKDKASDAWDKTKDKAGEAKDKMGDAWDTTKDKAGDAWDTTKDKAGDGKGKAGDAWDTTKDKASDAWDTTKDKAGEAKDKMGEAWDHTKDKAGEAKDKASDAADDAQGKSKSMTEKIGDSISGAWESTKDTAVSAKDKTAEAAGKVGDSISGAYDTVKEKASDIADSFKAHSTDSKDNVENKAADAYNSAKDKASDAWDKTKDKAGDAKDKAADAWDTTKDKAGDAWDSTKDHAADAKDKASDAAGDAKDKSKSLTEKAGDAISGAYDSVKEKASDIADSFKAHSTNSKDNVENKASDAYNSAKDKASDAWDKTKDKAGEAKDKAGDAWDNTKDKAGNAWDSTKDKASDAWDTTKDKASDAKESAGDAADSAKDKSKSITETIGDKISGAYDSVKEKASDVADSFKAHSSDAQDTVEVSHHKYFNVFSSFE” as the sequence, how does the “soluble on expression in E. coli” value read?
A: The value was “soluble”.

Q: For “MGSDKIHHHHHHMTPADNEIAEQQNFVDFNSILYTPQYAAGCFGLTTRRLMAIEEEHGLDIKRIKRGSSTSRVYTASDLFNIAALRRSLGHLKPIGRQIVASTFVPKGGTAKTTTAVNLAISAQFAGIKTLIIDNDPQGDTSNMLGYDPDLSPDDLVDMNIPSDRLVDGHFGNLLSPLLRMKPFSEKVLADVIKKPFGENGIHLIPADTYLEDLAVALDASNNSDMWYARFIEDANAGKVPGCDLSVYDLIIIDNAPAGSRLTKNSVAASDLLLCPVRMDKFSFRALLRLHEWCARFAKEYSYAPALMAIPTMFIRKRARLLANLQSLNTLFPGQVTEEKIYFSEDYSKSLDDGIPLMLWKRANSQTIDTARLVFGEILQKIRSLAA”, which “soluble on expression in E. coli” value is on record?
A: Its value is “not soluble”.

Q: Which “soluble on expression in E. coli” value does the source give for “MKKLVLIGGGYGNMRVLHRLLPNQLPDDVSITLIDRNPYHCLKTEYYALAAGTISDHHIRVSFPEHPRLDVQYGDITSIDIVQKQVLFQDREPISYDDAIIGLGCEDKYHNVPGAPEFTYSIQTIDQSRETYQKLNNLSANATVAIVGAGLSGVELASELRESRDDLNIILFDRGNLILSSFPERLSKYVQKWFEEHGVRIINRANITKVEEGVVYNHDDPISADAIVWTAGIQPNKVVRDLDVEKDAQGRIVLTPHHNLPGDEHLYVVGDCASLPHAPSAQLAEAQAEQIVQILQKRWNGEALPESMPQFKLKGVLGSTRK” here?
A: The value was “soluble”.

Q: Which “soluble on expression in E. coli” value does the source give for “MGSDKIHHHHHHMKIGIVGLGRVGSSTAFALLMKGFAREMVLIDVDKKRAEGDALDLIHGTPFTRRANIYAGDYADLKGSDVVIVAAGVPQKPGETRLQLLGRNARVMKEIARNVSKYAPDSIVIVVTNPVDVLTYFFLKESGMDPRKVFGSGTVLDTARLRTLIAQHCGFSPRSVHVYVIGEHGDSEVPVWSGAMIGGIPLQNMCQICQKCDSKILENFAEKTKRAAYEIIERKGATHYAIALAVADIVESIFFDEKRVLTLSVYLEDYLGVKDLCISVPVTLGKHGVERILELNLNEEELEAFRKSASILKNAINEITAEENKHQNTSG” here?
A: The value was “not soluble”.

Q: With “MYLLRINIEGTINYGLYKYLYPALKAAEGKKSIAGLILVFNSGGGDAASSQLIHDLVKKIRKKKPVYSLALGICASGAYWIASASTKIYAIDTSLIGSIGVISIRPNVKKLMEKIGVDVMVYKSGKYKDMTSPFSEPNEEEKSVYQRLLDDIFEKFKRSVAEDRGIPSEKIDEIANGMVYSAKMAADNGLIDRIANYDDLVSDLTKEVGKRLKVKEFYIRKPLLQRLLGILEHHHHHH” as the sequence, how does the “soluble on expression in E. coli” value read?
A: Its value is “not soluble”.

Q: With “MAHHHHHHMSEQNGAHSLQAELERMNAAIESYALQLDTINSAIESIDSENHSDDVSRQIFEYQTACERDPANISAEDALDTVTRLENTLKIVRRRNQLLAKENATQQKLLNDRSKFLLKETKNYENLVDRTGWHEQCSLNPEDEAQKASDIQEMSQLEVTVQRELRAAHTILKKKEALLRGLEEQLAKGTDLDAELNNAYNDIRVRKRECRELELRLEHLRKCSKKNDEALTVFENHGQSVSIEYMETDKDFLKDAVAQMKLVCRRQDNVIRAQLTRQQQLQTRLDTILRSLREMNLEKEYERNVSKSALVPSASREEPEDVSSILPKEETIPIHTYRLIFKNKELMNTNVVRKNMLVLEKEGVIQALEASLMKYANALNMTTRQLENMKINKGFEMTELMVELQQQHKNYLQQLEQIMQENNKLKKQLYRTPQLRTLIKNR” as the sequence, how does the “soluble on expression in E. coli” value read?
A: Its value is “not soluble”.

Q: Which “soluble on expression in E. coli” value does the source give for “MDSNLMSSVSTSAILGGENFADLFAESLKSQDMKSGEVISAEVVRVDHNFVVVNAGLKSEALIPLEEFLNDQGELEVQPGDFVSVAIDSLENGYGDTILSRDRAKRLSAWLQLEQALENGELVTGTITGKVKGGLTVMTNGIRAFLPGSLVDLRPVKDTTPYEGKTLEFKVIKLDRKRNNVVLSRRQVLEASMGEERQKLLETLHEGAVVKGVVKNITDYGAFVDLGGIDGLLHITDMAWRRVRHPSEVLQVGQEVEAKVLKFDQEKSRVSLGVKQLGEDPWVGLARRYPQGTRLFGKVTNLTDYGAFVEVEAGIEGLVHVSEMDWTNKNVDPRKVVTLGEEVEVMVLEIDEDRRRISLGMKQCRQNPWEEFATNFKRGDKVRGAIKSITDFGVFVGLPGGIDGLVHLSDLSWTESGEEAVRNFKKGDELEAVVLGIDTEKERISLGIKQLEGDPFNNFVATHDKGAVVPGTIKSVEPKGAVITLSVDVEGYLRASEISSGRVEDATTVLKAGENIEAMIVNIDRKARSIQLSIKARDNAETAETIQRMSEASASSGTTNLGALLKAKLDQQRNDGLEHHHHHH” here?
A: The value was “not soluble”.

Q: For “MSLAIQMTTKTTYQWPQSKDIYPYRPGRFDAPKHWRYNLRSFLNRGSIRRFEQFINQHPFLIDIFNTHLDYSYPVACRFLDKRFNASQRFHAVCENLLFLPEKLTALSTPLWEKPLSFGEVIPDFEMTLSMTTHQPMEGYWVLELWHKPRNELVYLLTFAKLGDALLIAVVQGPNFEGSKEMVKQLTKLCHGLRPAYLMVETMKSLTKILGYNKLLGIPQKYQNKSRFIQSKQYTVDYDAIFGESGGELKDYWELPLEMDRNLDDIPSKKRSMYRKRYAMLDDLAKVIEEKLGLEGHHHHHH”, which “soluble on expression in E. coli” value is on record?
A: Its value is “not soluble”.

Q: For “MSFDREEDQKLKFKTSKKLKVSSTFESMNLKDDLLRGIYSYGFEAPSSIQSRAITQIISGKDVIAQAQSGTGKTATFTIGLLQAIDLRKKDLQALILSPTRELASQIGQVVKNLGDYMNVNAFAITGGKTLKDDLKKMQKHGCQAVSGTPGRVLDMIKKQMLQTRNVQMLVLDEADELLSETLGFKQQIYDIFAKLPKNCQVVVVSATMNKDILEVTRKFMNDPVKILVKRDEISLEGIKQYVVNVDKEEWKFDTLCDIYDSLTITQCVIFCNTKKKVDWLSQRLIQSNFAVVSMHGDMKQEERDKVMNDFRTGHSRVLISTDVWARGIDVQQVSLVINYDLPEIIENYIHRIGRSGRFGRKGVAINFITKADLAKLREIEKFYSIKINPMPANFAELS”, which “soluble on expression in E. coli” value is on record?
A: Its value is “soluble”.

Q: Which “soluble on expression in E. coli” value does the source give for “MTMKGGVASQDFSAAIATACEPAANVWSKVCVALKRELGDAAFGSWIAPAMLREAATGDVVLVTSTGIARDWIRRSAWRRIGELWAAHDATGRRIDLKSRLEFEAAAGAYVEATPKAVAAEPIEIVLPVSTDAPTVVAPSAKSPRTQGLQERFTFETFVPGPANEFAHAVARRIANWADGHFNPVLFHGPYGFGKTHLLNALAWEAMRNAPEKRVVYLTAERFLSTFVRAVMDRQTAAFKEELRAADLLIIDDVHFIAGKQSTQEELFHTLTALVGEGGRVVFSADRPPSAMTEMDAHLRSHLSAGLVCGLEPADRNLRLGILERKIQTLGAAHGFEPSIRPEVMQFLADRFTDSVRELEGALNTLSARAGEGLSRMTLDEVQAILRPHLRSGEKRITIDDIQKATAEHYGMKQADLLSERRNRAVARPRQAAMWLAKQLTTRSLPDIGRRFGGRDHTTVLHAVRRIEALRAEDSALSHDLETLTRKLRGLEHHHHHH” here?
A: Its value is “not soluble”.

From the DeepSol protein solubility set
